Results as given in patent US20170342144A1 (Sanofi, published 2017).
Changes are numbered by the printed parent chain.

T1: human TGFβ3 (human, UniProt P10600 301-412)
T1 sequence: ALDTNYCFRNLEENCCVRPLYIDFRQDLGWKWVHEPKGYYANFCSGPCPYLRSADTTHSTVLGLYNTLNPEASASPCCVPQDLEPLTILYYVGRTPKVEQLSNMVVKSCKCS

T2: human TGFβ2 (human, UniProt P61812 303-414)
T2 construct: also called TGFβ2 homodimer
T2 sequence: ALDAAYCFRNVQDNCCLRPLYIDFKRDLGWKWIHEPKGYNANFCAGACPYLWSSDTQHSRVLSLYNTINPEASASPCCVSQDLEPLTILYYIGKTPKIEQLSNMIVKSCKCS

B1: D56C (antibody, V domains shown)
VH: QVQLVQSGAEVKKPGSSVKVSCKASGYTFSSNVISWVRQAPGQGLEWMGGVIPIVCIANYAQRFKGRVTITADESTSTTYMELSSLRSEDTAVYYCASTLGLVLDAMDYWGQGTLVTVSS
VL: ETVLTQSPGTLSLSPGERATLSCRASQSLGSSYLAWYQQKPGQAPRLLIYGASSRAPGIPDRFSGSGSGTDFTLTISRLEPEDFAVYYCQQYADSPITFGQGTRLEIK
notes: GC1008 IgG4 variant
B2: E74S (antibody, V domains shown)
VH: B1 VH with C56D, E74S
VL: B1 VL
notes: GC1008 IgG4 variant
B3: D56F (antibody, V domains shown)
VH: B1 VH with C56F
VL: B1 VL
notes: GC1008 IgG4 variant
B4: D56E (antibody, V domains shown)
VH: B1 VH with C56E
VL: B1 VL
notes: GC1008 IgG4 variant
B5: D56G (antibody, V domains shown)
VH: B1 VH with C56G
VL: B1 VL
notes: GC1008 IgG4 variant
B6: S30H (antibody, V domains shown)
VH: B1 VH with S30H, C56D
VL: B1 VL
notes: GC1008 IgG4 variant
B7: E74D (antibody, V domains shown)
VH: B1 VH with C56D, E74D
VL: B1 VL
notes: GC1008 IgG4 variant
B8: E74P (antibody, V domains shown)
VH: B1 VH with C56D, E74P
VL: B1 VL
notes: GC1008 IgG4 variant
B9: E74T (antibody, V domains shown)
VH: B1 VH with C56D, E74T
VL: B1 VL
notes: GC1008 IgG4 variant
B10: S30A (antibody, V domains shown)
VH: B1 VH with S30A, C56D
VL: B1 VL
notes: GC1008 IgG4 variant
B11: E74Y (antibody, V domains shown)
VH: B1 VH with C56D, E74Y
VL: B1 VL
notes: GC1008 IgG4 variant
B12: E74Q (antibody, V domains shown)
VH: B1 VH with C56D, E74Q
VL: B1 VL
notes: GC1008 IgG4 variant
B13: E74A (antibody, V domains shown)
VH: B1 VH with C56D, E74A
VL: B1 VL
notes: GC1008 IgG4 variant
B14: E74H (antibody, V domains shown)
VH: B1 VH with C56D, E74H
VL: B1 VL
notes: GC1008 IgG4 variant
B15: E74G (antibody, V domains shown)
VH: B1 VH with C56D, E74G
VL: B1 VL
notes: GC1008 IgG4 variant
B16: D56H (antibody, V domains shown)
VH: B1 VH with C56H
VL: B1 VL
notes: GC1008 IgG4 variant
B17: V55W (antibody, V domains shown)
VH: B1 VH with V55W, C56D
VL: B1 VL
notes: GC1008 IgG4 variant
B18: I52F (antibody, V domains shown)
VH: B1 VH with I52F, C56D
VL: B1 VL
notes: GC1008 IgG4 variant
B19: I52T (antibody, V domains shown)
VH: B1 VH with I52T, C56D
VL: B1 VL
notes: GC1008 IgG4 variant
B20: V55L (antibody, V domains shown)
VH: B1 VH with V55L, C56D
VL: B1 VL
notes: GC1008 IgG4 variant
B21: I54Y (antibody, V domains shown)
VH: B1 VH with I54Y, C56D
VL: B1 VL
notes: GC1008 IgG4 variant
B22: S30K (antibody, V domains shown)
VH: B1 VH with S30K, C56D
VL: B1 VL
notes: GC1008 IgG4 variant
B23: V55A (antibody, V domains shown)
VH: B1 VH with V55A, C56D
VL: B1 VL
notes: GC1008 IgG4 variant
B24: V55I (antibody, V domains shown)
VH: B1 VH with V55I, C56D
VL: B1 VL
notes: GC1008 IgG4 variant
B25: V55M (antibody, V domains shown)
VH: B1 VH with V55M, C56D
VL: B1 VL
notes: GC1008 IgG4 variant
B26: I54S (antibody, V domains shown)
VH: B1 VH with I54S, C56D
VL: B1 VL
notes: GC1008 IgG4 variant
B27: D56P (antibody, V domains shown)
VH: B1 VH with C56P
VL: B1 VL
notes: GC1008 IgG4 variant
B28: I52P (antibody, V domains shown)
VH: B1 VH with I52P, C56D
VL: B1 VL
notes: GC1008 IgG4 variant
B29: I54G (antibody, V domains shown)
VH: B1 VH with I54G, C56D
VL: B1 VL
notes: GC1008 IgG4 variant
B30: I54Q (antibody, V domains shown)
VH: B1 VH with I54Q, C56D
VL: B1 VL
notes: GC1008 IgG4 variant

These binders were tested against T3, human TGFβ1 (human, UniProt P01137 279-390) (assay: Biacore off-rate vs wt GC1008, 50 nM).
T3 construct: also called TGFβ1 homodimer
T3 sequence (P01137 279-390 limits assumed): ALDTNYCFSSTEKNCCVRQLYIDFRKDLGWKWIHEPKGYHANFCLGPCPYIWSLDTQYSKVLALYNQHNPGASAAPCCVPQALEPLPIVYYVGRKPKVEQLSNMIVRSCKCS
Text: (§1) Plasmids encoding either the GC1008 heavy chain or light chain were used as a template in PCR-based mutagenesis reactions. Mutations to the encoding DNA were made to create 155 single amino acid substitutions of the encoded heavy chain amino acid sequence and one single amino acid substitution of the encoded light chain amino acid sequence. A QuikChange® Lightning Site-Directed Mutagenesis kit (Agilent Technologies, Santa Clara Calif.) was used according to the manufacturer's instructions to create DNA mutations using a set of forward and reverse primers, either designed for a specific amino acid or for all 20 amino acids with a degenerate codon (NNK). After sequencing confirmation, identified mutant DNA was paired with a wild-type light or heavy chain DNA for transfection into an Expi293F™ host cell suspension (Life Techonologies Corp., Grand Island, N.Y.). At 4 days post-transfection, conditioned media (1 mL) was harvested and purified using a 1 mL Protein A PhyTip® column (PhyNexus, Inc., San Jose, Calif.) and a PureSpeed™ 12-channel pipette (Rainin Instrument LLC, Oakland, Calif.). Purified variant antibody samples were analyzed in duplicate on a Biacore® 3000 (GE Healthcare) at 50 nM concentrations, using the 100 RU level TGFβ1, 2, and 3 immobilized surfaces. The off-rate (kd) of the variants was divided by the kd of the wild-type control to obtain the fold change in the kd. […] A heat map was generated to visualize the results. Variants that completely lost affinity for TGFβ were shown in red without numbers.

Going from B1 to B2, the kd var/kd wt falls from 1.1 to 0.8.

First: B3
Second: B4
The kd var/kd wt of the first is higher: 2.3 for the first, 1 for the second.

Compared with B5, B6 is lower in kd var/kd wt: 1.4 for the first, 0.9 for the second.

Going from B7 to B8, the kd var/kd wt falls from 0.9 to 0.8.

Going from B9 to B10, the kd var/kd wt falls from 0.8 to 0.7.

First: B11
Second: B12
The kd var/kd wt of the first is lower: 0.7 for the first, 1.2 for the second.

Going from B13 to B14, the kd var/kd wt falls from 1 to 0.9.

Compared with B15, B16 is higher in kd var/kd wt: 1 for the first, 1.1 for the second.

Each binder was assayed against T1, human TGFβ3 (assay: Biacore off-rate vs wt GC1008, 50 nM).
Text: as §1

Compared with B1, B3 is higher in kd var/kd wt: 0.8 for the first, 1.5 for the second.

Going from B4 to B5, the kd var/kd wt rises from 0.9 to 1.1.

First: B17
Second: B18
The kd var/kd wt of the first is higher: 2.1 for the first, 2 for the second.

First: B19
Second: B20
The kd var/kd wt of the first is higher: 2.1 for the first, 1.8 for the second.

Compared with B21, B22 is higher in kd var/kd wt: 1.5 for the first, 1.6 for the second.

Going from B23 to B16, the kd var/kd wt falls from 2 to 0.7.

Work on B24 yielded a kd var/kd wt of 1.8.

What follows are binders tested against T2, human TGFβ2 (assay: Biacore off-rate vs wt GC1008, 50 nM).
Text: as §1

First: B1
Second: B2
The kd var/kd wt of the first is higher: 1.3 for the first, 0.7 for the second.

Compared with B3, B4 is lower in kd var/kd wt: 1.5 for the first, 1.2 for the second.

Compared with B5, B6 is lower in kd var/kd wt: 1.5 for the first, 0.8 for the second.

Compared with B7, B17 is higher in kd var/kd wt: 0.8 for the first, 1.3 for the second.

Compared with B9, B18 is higher in kd var/kd wt: 0.9 for the first, 1.9 for the second.

Compared with B19, B25 is lower in kd var/kd wt: 1.9 for the first, 1.7 for the second.

First: B12
Second: B26
The kd var/kd wt of the first is lower: 0.8 for the first, 1.7 for the second.

First: B27
Second: B20
The kd var/kd wt of the first is higher: 1.9 for the first, 1.6 for the second.

First: B28
Second: B29
The kd var/kd wt of the first is higher: 1.9 for the first, 1.8 for the second.

Going from B15 to B21, the kd var/kd wt rises from 0.7 to 1.3.

Going from B22 to B23, the kd var/kd wt rises from 1.5 to 1.7.

First: B16
Second: B24
The kd var/kd wt of the first is lower: 1.3 for the first, 1.7 for the second.

B30 gave a kd var/kd wt of 1.8.
